Test results from the DeepSol protein solubility set.

Experiment: soluble on expression in E. coli; label from the status in PepcDB or PDB records

Row | Sequence | soluble on expression in E. coli
1 | MGSDKIHHHHHHMLTLANVALLSQLALQQPGETDKKPEDCSFEQIEFTINFAVGRLNHCEKTGDNQYKLFLEPEREKINPSPWYAFAVKNKTETSQTIDITLVASEGVSRYKPKRSEGDDIWHAIPFSEGDGTLQFELTLSGQTKEYIAGQEIIDNVHYIEWLSSLIKEPQQTEVISLGVSSEGRNLAALEHRVESSDKWIILIGRQHPPEVTGALALLHFGELLFSDEPYVVKFRQKYNILLVPNMNPDGVYHGNWRLTAAGIDMNRDWKNLTLPETQAMANYLKKLVKDGGKIEFAIDFHSTRKNVFYTMPEDYEPRSGVPLRNPQRVYNWIEEIEELVGSVELDYQPGAHPESGVFKQFIADEFAAHAVTYEVSDNEERNNIKKVAEAALISLINRLD | not soluble
2 | MHFADPREAREFLAAHPEVRSIELFLIDANGVPRGKLLHRDELLAVYESGRPLPSTILGLTINGDDVEETGLVWDVGDADCWTFPLPGSLTLQPWRQSPTGQVQVSMHPELGLPAAAGDPRHVLQRVIHSLQAEGFHPVMAVELEFYLLDRERDSDGRPLPALQMNGQRPRATQVYGVYELEQLQPFLDDLYAACEAQGLPARTAISEYAPGQVEITLQHRFDTLQAIDEGVRYKRLVKGVANRHGLQACFMAKPFADLSGSGLHLHVSLADAAGNNLFASEDPAGTPLLRQAIGGMKACLLESLALFCPNANSFRRFQANSYAPLAPTWGINNRTVSLRVPGGPASSRHIEHRICGADANPYLAAAALLAAVRLGIRERLDPGAPITGNGYAQATQALPSDWLTALRALEGSAWAREALGEDFLKIYLAIKQAEYRAFMGEVGE | not soluble
3 | MGSDKIHHHHHHMVKLKPKGPFTRIPRATTIFGAISNAIRLLYGRKEVEKFIAGFINDDAKITSAFPYDGETYFLPKPLSVDLVVKTLFETKKEDVKKVKKKDYIPLESFEKALRLEEFEVKELPYKVIELPKVSLDRVSNDSSLYFWDLVTFKENSGLYFLYDGSNKLFEKYIVPAMRLLEDQGIGGKGTWGYGLFEVEIEELEIEEPRENSYVTLSPFVPENETSLILWKIVKLGGWSQGKRRPKIPMVVEGSLSREDRGKMITLDLSLSYPVYVYARSFLVRASLPEEAVGHV | not soluble
4 | MAHHHHHHMYRSSGELRKYAQCVFALYCLDDGLSISRFRLAWYVLWGKWPEESVVQMLFDKKDKSTGGNEDPTGEEGGIVGSGGLAEKDKHHDGGTPLAQSFPFSALRRRINEKEFVRFAVTYHDTMGADAVGFGVTEEDGEYATVDMQSAFSGVVRARHWLQFHALAGSKGYVTLDDLIATEKVDWLYPPMSGGSASGLMVEQAGDDSSTMPQDDVDRRLAVLSHVFAIIDGDHDGKLNFEDVTRHLAKTA | not soluble
5 | MAHHHHHHMALKLCKRFLRSNTKKPIFSKARDNLKERFDDDNYSFLEDNSFDSPLKASDEFPSYMQPSDKNSSWSEEWRDENLKLREKENRYNLRVSDNYAYSVPYNYKIVIPHKGKNIKDEKDKRKKLLNDEKYIKEEYSRDVSNTLNYSDFCGFRNPTLSTFENYRYWQDSGFKKFMNRIFPIKIPEHRKIDPLLREYIYFLHSFDPYRFTFKRLSERYLFPENVIRSIYKEESVKRFLEDYHLCDDKTKRISKKEAVLKIKELIYSKKIGYKDIGDYENIKNEQDEFCGHKNTFDQINRQIIQVESISAFPLADRRNPVPKRVDIDMTVCNTSNIKIMNWINPNDKVIF | soluble
6 | MKYIVNKSHNPAFNIALEAYAFRELVEEDELFILWINEPAIIIGKHQNTIQEINKEYIDEHGIHVVRRLSGGGAVYHDLNNLNYTIISNKTAEGAFDFKTFSQPVIATLADLGVTANFTGRNDIEIDGKKICGNAQAYYKGRMMHHGCLLFDVDMTVLGDALKVSKDKIESKGVKSVRARVTNILNELPEKITVEEFSDKILAKMKETYPDMTEYVLSEDELAKIEQSAKEQFGSWDWTYGKAPEYTIERNVRYPAGKISTFANVENSIIKNLKIYGDFFGIKDVQDIENLLIGCKYEYRDVFERLKTIDTTQYFSRMTVEEVAKAIVS | not soluble
7 | RCIKLYRARKGNAAVKRHMRDTLSLNDAVEKVRAVDAPLSKLAQEALQSYRNYRRNEASELAQALPLNEYLVIQIRNSMAQIMRRFD | not soluble
8 | MHHHHHHSSGRENLYFQGNAVLTWNNEILPNWETMWCSRKVRDLWWQGIPPSVRGKVWSLAIGNELNITHELFDICLARAKERWRSLSTGGSEVENEDAGFSAADREASLELIKLDISRTFPNLCIFQQGGPYHDMLHSILGAYTCYRPDVGYVQGMSFIAAVLILNLDTADAFIAFSNLLNKPCQMAFFRVDHGLMLTYFAAFEVFFEENLPKLFAHFKKNNLTPDIYLIDWIFTLYSKSLPLDLACRIWDVFCRDGEEFLFRTALGILKLFEDILTKMDFIHMAQFLTRLPEDLPAEELFASIATIQMQSRNKKWAQVLTALQKDSREMEKG | soluble
9 | GSHMSQSFGRVLTIVHSDCALLERDGNISLLSLPVAERWLRQAQLTPGEAPVCAQPLLIPLRLKVSAEEKSALEKAQSALAELGIDFQSDAQHVTIRAVPLPLRQQNLQILIPELIGYLAKQSVFEPGNIAQWIARNLMSEHAQWSMAQAITLLADVERLCPQLVKTPPGGLLQSVDLHPAIKALKDE | soluble
10 | MGSDKIHHHHHHMNHNLTTLHPYPFAKMATLLADSTPAHSYDEIKLGIGEPKHAPPAFVLDVLRENLDKISHYPTTNGLFELRQTIAHWLEKRFFLNHVNPNTQVLPVMGTREAIFSIVQAVINHQTETISQTATLNQSPVVVMPNPFYQIYEGAAILAQATPYFIPCTADNGFKGDFRSVPKDVWMRTQLLFVCSPNNPTGSVMTMDDWEQLLRLSDQYGFIIASDECYSELYFDKAPIGLLQACAALGRHDFKNCLVFHSLSKRSNLPGLRSGFVAGDATILDSYLQYRTYQGCAMPIPHQLASIAAWEDEKHVAHNRALYQEKFALWMSELGALLDLRMPEAGFYFWIKAPEQFDGDDELFVKALYEHANIHALAGRYLSREVNGKNPGQGYVRIALVASVEESREAIRRIRQLLGA | not soluble
11 | MAQHEVITRGGDAFLLKLRESALSSGSMSEEQFFLLIGISSIHSDRVILAMKDYLVSGHSRKDVCEKYQMNNGYFSTTLGRLTRLNVLVARLAPYYTDSVSAIAEAASL | soluble
12 | MRELGLEIPVEEVYNANSISLKDAVVHFGGGCTGEVISSEGLVLTNHHCGYGAIQQHSNVEHDYLTEGFWAMNRDAELPTPGLTVTFIDRILDVTSYVNDQLKKDEDPNGTNYLSPSYLSKVAERFAKDENIEVTPATKLELKAFYGGNKYYMFVKTVYSDIRMVGAPPSSIGKFGADTDNWMWPRHTGDFSLFRIYADKNGKPAAYSRDNVPLQVKKHLKISIAGVQEGDFTFVMGFPGRNWRYMISDEVEERMQTTNFMRQHVRGARQKVLMEQMLKDPAVRIHYASKYASSANYWKNAIGMNEGLVRLKVLDTKRKQQEELLARGREKGDDSYQKAFDEIRSIVAHRRDALYHQQALNEALVTALDFMRLPSTTEMVTALKSKNKEQIKTATENLKQAGEKYFASVPFPEVERMVAKTMLQTYASYIPEEQRINIFEIINSRFKGNIDSFVDACFEYSIFGNPKNFEKFIKKPSLYKIGHDWMVLFKYSITDGILKTAIAMKEANQNYDAAHKVWVKGMMDMRQEKGMPIYPDANSTLRLTYGQVLSYEPADGVVYDAHTTLKGVMEKEDPGNWEFVVPQKLKELYKARDYGRYGKDGEMPVCFIVNTDNTGGNSGSPVFNSKGQLVGTAFDRNYEGLTGDIAFRPSSQRAACVDIRYTLFIIDKYAGASHIIDELSIE | not soluble
13 | MLEKTLLKIALDLSLSLPKKAHYQRLMLAVNEVMPCDAVALLVLQDDYLVPVAVDGLSPEVLGMRFSPEEHPRLKAILSSRKPIRFDADSSYPDPYDGLLSIDPKRVLDVHDCMGCCLYVEENLVGVLTLDALQVGAFSNVDDITVATLAALAAATIRNANCIAVLEKRNEKALCLTNELVKDAHKAKGDD | not soluble
14 | HVKVGFSPEKLRPYTTMPADFQQFWENQKAELAKFPLTYTKEHVKKYSTDQIDCYLIKLQVNQRGQSIYGYLFYPKKEGKYPVVLCPPGAGIKTIKEPLRHKYYAEQGCIRFEIEIHGLNPEMSEEEFKEISAAFNGRENGYLSNGLDSRDNYYMKRVYLACVRSIDLLTSLPEWDGKNVVVQGGSQGGALALVTAGLDQRVTACVANHPALSDMAGYKAGRAGGYPHFFRNTVDMDTPEKIRTMAYYDVVNFAQLIRADTYMTWGFNDNVCPPTTSYIVYNVLNCPKEALITPINEHWTSSDTEYGHLLWIKKHLK | not soluble
